# Assays:
# HEK293 (293) cells = experiment: In vitro cell viability (cell kill) assay, CCK8; assay type: cell-based, human; details: 293; Table 11; 3 days
# Source text: (§1) PRLR-overexpressing cells, including HEK293, PC3, MCF7 and NCI-N87, were generated to assess the ability of anti-PRLR conjugated antibodies to reduce cell viability. For comparative purposes, PC3 and T47D cells with overexpressed ErbB2 were also generated, as well as an MCF7 cell line over-expressing both hPRLR and hErbB2. Briefly, Lipofectamine® 2000-mediated transfection methodology was utilized to generate HEK293 cells expressing human PRLR (HEK293/hPRLR) or human ErbB2 (HEK293/hErbB2). Lipofectamine LTX with Plus Reagent was used to generate PC3 cells expressing human PRLR (PC3/hPRLR) or human ErbB2 (PC3/hErbB2). Lentiviral-mediated transduction was utilized to generate MCF7 cells expressing human PRLR (MCF7/hPRLR), NCI-N87 cells expressing human PRLR (NCI-N87/hPRLR), T47D cells over-expressing human ErbB2 (T47D/hErbB2), and MCF7 cells expressing both human PRLR and human ErbB2 (MCF7/hPRLR/hErbB2). All lines were selected for at least two weeks in complete growth media plus appropriate selection reagents. Stably expressing populations were enriched for PRLR expression via FACS using the anti PRLR antibody Control I.
# (§2) Next, the ability of anti-PRLR-DM1 antibody-drug conjugates (i.e., anti-PRLR antibodies conjugated to DM1 via a non-cleavable linker [SMCC]) to reduce cell viability was determined using in vitro cell based assays. Cells were seeded in PDL-coated 96 well plates at 1500 to 10000 cells per well in complete growth media and allowed to grow overnight. For cell viability curves, ADCs or free DM1 (as the methyl disulfide derivative DM1-SMe) were added to the cells at final concentrations ranging from 500 nM to 5 pM and incubated for 3 days. The 293, PC3 and T47D cells were incubated with CCK8 (Dojindo, Rockville, Md.) for the final 1-3 hours and the absorbance at 450 nm (OD450) was determined on a Flexstation3 (Molecular Devices, Sunnyvale, Calif.). MCF7 cells were treated with Hoechst 33342 nuclear stain while being fixed with 4% formaldehyde. Images were acquired on the ImageXpress micro XL (Molecular Devices, Sunnyvale, Calif.) and nuclear counts were determined via Columbus image analysis software (Perkin Elmer, Shelton, Conn.). Background OD450 values (PC3, 293, and T47D) or nuclear counts (MCF7) from digitonin (40 nM) treated cells was subtracted from all wells and viability was expressed as a percentage of the untreated controls. IC50 values were determined from a four-parameter logistic equation over a 10-point response curve (GraphPad Prism).
# PC3 cells = experiment: In vitro cell viability (cell kill) assay, CCK8; assay type: cell-based, human; details: Table 11, 3 days
# Source text: as §1, §2
Molecule,IC50 (HEK293 (293) cells),% Kill (PC3 cells),IC50 (PC3 cells),% Kill (HEK293 (293) cells)
H1H6959N2-DM1 (conjugate) VH: EVQLVESGGGLVQPGRSLRLSCAASGFTFDDYAMHWVRQAPGKGLEWVSGISWHSGIIGYADSVKGRFTISRDNAKNSLYLQMNSLRTEDAALYYCAKIGSYFYFDSWGQGTLVTVSS VL: EIVLTQSPGTLSLSPGERATLSCRASQSVSSNYLAWYQQKPGQAPRLLIYGASSRATGIPDRFSGSGSGTDFTLTISRLEPEDFAVYYCQQFGSSGYTFGQGTNLEIK,75 nM,79%,150 nM,
H1H6803P-DM1 (conjugate) VH: EVQLVESGGGVVRPGGSLRLSCAASGFKFDDYGMTWVRHVPGKGLEWVSGINWNGGRTGYTDSVKGRFTISRDNAKNSLYLQMNSLRAEDTALYHCAGARRDAFDIWGQGTMVTVSS VL: DIQMTQSPSSLSASIGDRVTITCRASQNIIKYLNWYQQNAGKAPKLLIYTASSLQSGVPSRFSGSGSGTDFTLTISSLQPEDFATYYCQQSSSSPYTFGQGTKLEIK,,72%,,7%
